The record followed here is US20140227293A1 (TRUSTEES OF BOSTON UNIVERSITY, published 2014).

This series deals with the molecule itself. Nature of the series: BS3 chemical cross-linking of PAE cells expressing IGPR-1 (confluent versus sparse), anti-IGPR-1 Western blot. The procedure: To determine whether IGPR-1 is involved in cell-cell interaction inventors subjected PAE cells expressing IGPR-1 and ΔN-IGPR-1 to aggregation/cell-cell adhesion assay. […] To further establish role of IGPR-1 in cell-cell interaction, the inventors investigated dimerization of IGPR-1 particularly its possible trans-dimerization. Inventors reasoned that if cells are plated in confluent condition, IGPR-1 could form trans-dimerization and possibly cis-dimerization (see FIG. 9C). However, plating the cells in a sparse condition, IGPR-1 will be less able to form trans-dimerization.

B1: immunoglobulin containing and proline rich receptor-1 (IGPR-1), human, full length, ectopically expressed in PAE cells (receptor)
chain: LSVQQGPNLLQVRQGSQATLVCQVDQATAWERLRVKWTKDGAILCQPYITNGSLSLGVCGPQGRLSWQAPSHLTLQLDPVSLNHSGAYVCWAAVEIPELEEAEGNITRLFVDPDDPTQNRNRIASFPGFLFVLLGVGSMGVAAIVWGAWFWGRRSCQQRDSGNSPGNAFYSNVLYRPRGPPKKSEDCSGEGKDQRGQSIYSTSFPQPAPRQPHLASRPCPSPRPCPSPRPGHPVSMVRVSPRPSPTQQPRPKGFPKVGEE
modifications: N-glycosylated (apparent 55 kDa, 31 kDa after PNGase F)
notes: Expressed from the retroviral vector pMSCV.puro in PAE (porcine aortic endothelial) cells; Used on intact cells (aggregation, adhesion, BS3 cross-linking) and as whole cell lysate (GST pull-down, co-immunoprecipitation, Western blot); also called IGRP-1; TMIGD2
As to B1, the binding result was “binds”.
